# In patent US7211424B1, “Mammalian Subtilisin/kexin isozyme SKI-1: a proprotein convertase with a unique cleavage specificity” (Institut de Recherches Cliniques de Montreal, priority 1999, dated 2007):
# Like-named read-outs stand apart in the source and are kept apart here. Where no end group is shown, it is not given here. [ ]: non-standard residue; d: D form. Tyr(3-NO2) = N[C@@H](Cc1ccc(O)c([N+](=O)[O-])c1)C(=O)O; 2Abz = Nc1ccccc1C(=O)O
# Key:
# BTMD-SKI-1 [1] = molecular target: T1, BTMD-SKI-1 (Homo sapiens, UniProt Q14703); test: pH optimum and calcium dependence of peptide cleavage by BTMD-SKI-1; type: biochemical
# T1 sequence (Q14703 187-997 limits assumed): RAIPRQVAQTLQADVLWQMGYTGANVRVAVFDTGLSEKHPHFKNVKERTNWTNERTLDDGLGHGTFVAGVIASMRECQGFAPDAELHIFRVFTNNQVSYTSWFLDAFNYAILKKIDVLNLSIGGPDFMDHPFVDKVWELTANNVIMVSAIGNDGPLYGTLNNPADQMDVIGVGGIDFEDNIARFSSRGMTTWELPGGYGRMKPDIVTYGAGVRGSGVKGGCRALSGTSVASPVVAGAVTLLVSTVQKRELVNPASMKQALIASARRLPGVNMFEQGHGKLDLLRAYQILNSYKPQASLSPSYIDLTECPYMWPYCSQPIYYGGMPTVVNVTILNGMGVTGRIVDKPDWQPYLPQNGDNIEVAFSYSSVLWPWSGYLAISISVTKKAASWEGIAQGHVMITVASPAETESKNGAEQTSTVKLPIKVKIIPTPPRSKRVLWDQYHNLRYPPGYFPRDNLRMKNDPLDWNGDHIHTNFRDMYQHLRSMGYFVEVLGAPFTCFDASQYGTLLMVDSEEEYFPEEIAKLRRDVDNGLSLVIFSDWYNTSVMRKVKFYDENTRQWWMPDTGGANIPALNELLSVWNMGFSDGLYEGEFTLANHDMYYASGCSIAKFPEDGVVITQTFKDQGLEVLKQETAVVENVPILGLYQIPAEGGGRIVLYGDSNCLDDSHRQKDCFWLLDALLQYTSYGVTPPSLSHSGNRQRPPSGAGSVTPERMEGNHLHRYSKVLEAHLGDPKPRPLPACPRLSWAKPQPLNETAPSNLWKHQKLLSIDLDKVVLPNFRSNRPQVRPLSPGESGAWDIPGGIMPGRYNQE
# T1 sequence (Q14703 17-137 partner limits assumed): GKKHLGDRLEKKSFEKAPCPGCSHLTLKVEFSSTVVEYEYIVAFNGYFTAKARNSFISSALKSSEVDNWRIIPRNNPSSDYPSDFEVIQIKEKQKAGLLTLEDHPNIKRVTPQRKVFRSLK
# Procedure: pH Optimum, Calcium-Dependence and Inhibitor Profile—The protocols used were essentially the same as reported previously (13). Stocks of the buffer described above were adjusted to pH 5.0–8.5 at 0.5 unit increments by addition of either acetic acid or sodium hydroxide. In order to investigate the calcium requirement of SKI-1, increasing concentrations of Ca^2+-acetate were used ranging from 0 to 10 mM.
# [2] = tested on: endogenous furin-like enzyme(s); test: Ex vivo proBDNF processing in COS-7 cells: 14 kDa BDNF; type: cell-based
# SKI-1 = molecular target: T2, SKI-1 (Homo sapiens, UniProt Q14703); type: cell-based; parameters: The VV recombinant of full-length hSKI-1 has been described (10); expressed in transfected cells; host or cells: COS-7 cells co-infected with vv:BDNF and vv:SKI-1 (with vv:WT, vv:PIT or vv:PDX)
# T2 sequence (Q14703 187-1052): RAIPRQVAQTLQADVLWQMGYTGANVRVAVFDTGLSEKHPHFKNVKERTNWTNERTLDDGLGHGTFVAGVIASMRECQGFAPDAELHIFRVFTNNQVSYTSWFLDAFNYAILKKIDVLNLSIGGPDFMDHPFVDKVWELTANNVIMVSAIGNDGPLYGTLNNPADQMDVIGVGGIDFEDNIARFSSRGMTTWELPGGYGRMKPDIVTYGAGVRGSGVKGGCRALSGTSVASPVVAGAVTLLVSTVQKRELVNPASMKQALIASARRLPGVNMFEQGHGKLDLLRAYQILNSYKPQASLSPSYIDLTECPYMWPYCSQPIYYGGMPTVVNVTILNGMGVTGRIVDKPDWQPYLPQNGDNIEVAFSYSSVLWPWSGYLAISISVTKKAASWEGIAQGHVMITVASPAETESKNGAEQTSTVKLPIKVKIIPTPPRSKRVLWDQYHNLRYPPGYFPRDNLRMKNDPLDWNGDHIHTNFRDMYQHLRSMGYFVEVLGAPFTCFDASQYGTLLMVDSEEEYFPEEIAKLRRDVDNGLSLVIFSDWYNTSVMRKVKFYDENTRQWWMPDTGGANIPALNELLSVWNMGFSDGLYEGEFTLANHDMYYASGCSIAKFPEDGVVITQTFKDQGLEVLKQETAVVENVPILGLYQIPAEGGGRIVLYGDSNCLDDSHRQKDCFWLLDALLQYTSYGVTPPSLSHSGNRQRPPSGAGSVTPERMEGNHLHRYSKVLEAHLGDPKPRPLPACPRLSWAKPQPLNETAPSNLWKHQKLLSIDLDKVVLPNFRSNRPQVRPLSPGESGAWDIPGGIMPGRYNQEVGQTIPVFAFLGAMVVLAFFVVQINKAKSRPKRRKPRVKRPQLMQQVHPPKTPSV
# [3] = molecular target: T3, 98 kDa shed form of SKI-1 (sSKI-1) (human, UniProt Q14703 187-996); test: cell-based or functional assay
# T3 sequence: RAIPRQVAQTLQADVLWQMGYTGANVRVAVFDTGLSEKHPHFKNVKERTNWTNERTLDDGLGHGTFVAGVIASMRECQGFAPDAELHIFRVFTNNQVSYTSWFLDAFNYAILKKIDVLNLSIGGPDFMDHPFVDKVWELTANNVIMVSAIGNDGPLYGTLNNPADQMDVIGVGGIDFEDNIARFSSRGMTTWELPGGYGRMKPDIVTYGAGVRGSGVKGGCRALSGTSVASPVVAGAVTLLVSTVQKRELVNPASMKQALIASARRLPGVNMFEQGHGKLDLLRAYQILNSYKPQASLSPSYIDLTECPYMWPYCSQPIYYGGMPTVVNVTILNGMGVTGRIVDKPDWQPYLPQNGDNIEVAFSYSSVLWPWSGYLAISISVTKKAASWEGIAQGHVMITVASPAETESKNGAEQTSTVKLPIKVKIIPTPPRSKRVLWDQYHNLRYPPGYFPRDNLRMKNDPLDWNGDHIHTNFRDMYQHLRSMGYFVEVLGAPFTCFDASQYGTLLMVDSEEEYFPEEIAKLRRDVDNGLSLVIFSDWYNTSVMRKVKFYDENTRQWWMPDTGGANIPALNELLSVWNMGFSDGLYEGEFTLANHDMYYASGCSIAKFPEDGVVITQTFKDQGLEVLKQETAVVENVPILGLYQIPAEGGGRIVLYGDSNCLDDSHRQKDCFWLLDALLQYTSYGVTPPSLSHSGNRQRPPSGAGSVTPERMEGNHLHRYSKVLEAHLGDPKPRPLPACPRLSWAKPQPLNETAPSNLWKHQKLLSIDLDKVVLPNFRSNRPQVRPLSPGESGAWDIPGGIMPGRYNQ
# BTMD-SKI-1 [4] = molecular target: T4, BTMD-SKI-1 (human, UniProt Q14703 187-997); test: Ki(app) from Dixon plots; inhibition of peptide IV hydrolysis by BTMD-SKI-1 medium (RP-HPLC), prosegment preincubated with the enzyme for 30 min
# T4 construct: The construct encodes aa 1-997 plus hexa-His; It was secreted from VV-infected BSC40 or LoVo cells and used as concentrated medium or after metal chelation purification; The secreted enzyme stays associated with the ~14 kDa prosegment fragment; also called bSKI-1; BTMD-hSKI-1
# T4 sequence: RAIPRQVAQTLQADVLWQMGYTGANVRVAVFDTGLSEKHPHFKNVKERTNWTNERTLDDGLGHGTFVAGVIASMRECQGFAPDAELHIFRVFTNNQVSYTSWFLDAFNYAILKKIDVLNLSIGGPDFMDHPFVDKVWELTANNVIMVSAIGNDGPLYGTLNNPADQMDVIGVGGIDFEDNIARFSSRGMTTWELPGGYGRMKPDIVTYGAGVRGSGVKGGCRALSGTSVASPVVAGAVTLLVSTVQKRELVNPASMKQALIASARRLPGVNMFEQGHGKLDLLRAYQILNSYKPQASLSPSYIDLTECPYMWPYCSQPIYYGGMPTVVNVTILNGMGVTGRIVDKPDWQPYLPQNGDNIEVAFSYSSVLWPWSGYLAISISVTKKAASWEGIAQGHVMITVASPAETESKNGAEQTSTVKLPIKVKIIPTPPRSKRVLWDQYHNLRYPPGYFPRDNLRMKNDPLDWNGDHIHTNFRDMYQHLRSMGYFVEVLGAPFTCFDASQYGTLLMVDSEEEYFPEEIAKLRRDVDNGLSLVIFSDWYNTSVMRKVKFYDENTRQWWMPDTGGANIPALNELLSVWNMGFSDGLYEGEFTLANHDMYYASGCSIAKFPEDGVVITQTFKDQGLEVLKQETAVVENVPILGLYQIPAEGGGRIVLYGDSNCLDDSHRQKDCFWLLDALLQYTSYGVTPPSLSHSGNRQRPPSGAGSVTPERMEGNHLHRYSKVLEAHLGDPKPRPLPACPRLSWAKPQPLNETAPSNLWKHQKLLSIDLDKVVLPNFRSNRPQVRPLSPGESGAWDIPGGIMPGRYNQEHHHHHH
# BTMD-hSKI-1 = molecular target: T5, BTMD-hSKI-1 (Homo sapiens, UniProt Q14703); type: biochemical
# T5 sequence (Q14703 187-997 limits assumed): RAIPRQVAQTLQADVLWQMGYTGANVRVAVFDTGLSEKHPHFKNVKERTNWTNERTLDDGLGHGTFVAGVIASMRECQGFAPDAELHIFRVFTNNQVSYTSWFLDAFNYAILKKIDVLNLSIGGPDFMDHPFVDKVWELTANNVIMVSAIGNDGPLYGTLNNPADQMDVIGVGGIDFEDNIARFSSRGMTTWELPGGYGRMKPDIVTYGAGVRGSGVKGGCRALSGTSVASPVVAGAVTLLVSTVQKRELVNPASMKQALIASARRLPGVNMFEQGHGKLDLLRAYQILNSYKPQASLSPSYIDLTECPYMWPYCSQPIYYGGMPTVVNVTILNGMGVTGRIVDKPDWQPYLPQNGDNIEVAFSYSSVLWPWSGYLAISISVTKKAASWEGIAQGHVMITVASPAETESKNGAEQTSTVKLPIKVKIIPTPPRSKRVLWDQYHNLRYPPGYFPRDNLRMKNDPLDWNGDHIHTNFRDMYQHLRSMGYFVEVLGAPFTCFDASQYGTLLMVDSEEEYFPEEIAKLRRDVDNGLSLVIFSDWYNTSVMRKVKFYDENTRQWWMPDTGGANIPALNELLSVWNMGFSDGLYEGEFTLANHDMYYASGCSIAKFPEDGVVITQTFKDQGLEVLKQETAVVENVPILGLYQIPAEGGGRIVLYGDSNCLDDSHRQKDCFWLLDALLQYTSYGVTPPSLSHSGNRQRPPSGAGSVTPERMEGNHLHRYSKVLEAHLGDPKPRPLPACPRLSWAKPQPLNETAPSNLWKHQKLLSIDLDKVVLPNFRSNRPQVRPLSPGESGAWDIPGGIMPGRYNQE
# [5] = COS-7 cells co-expressing proBDNF and SKI-1
molecule,measurement,setting,value
KAGSRGLTSLADTF [I],activity retained,BTMD-SKI-1 [1]; at pH 5.0,about 30%
same,activity retained,BTMD-SKI-1 [1]; at pH 8.5,~55%
CNc1ccc2oc(C[C@H]3O[C@@]4(CC[C@H]3C)O[C@H]([C@H](C)C(=O)c3ccc[nH]3)[C@H](C)C[C@H]4C)nc2c1C(=O)O [Peptide A23187],production of the 14 kDa BDNF,[2]; [5],abolished
same,level of the 28 kDa BDNF product,SKI-1; [5],abolished
α1-antitrypsin Portland [α1-PDX],production of the 14 kDa BDNF,[2],selectively blocks the production of the 14 kDa BDNF
same,level of the 28 kDa BDNF product,SKI-1,neither α1-PIT nor α1-PDX affect the level of the 28 kDa product
"[2Abz]VFRSLKYAESD[Tyr(3-NO2)]A-NH2 (N-terminus assumed; SMILES CC(C)C[C@H](NC(=O)[C@H](CO)NC(=O)[C@H](CCCNC(=N)N)NC(=O)[C@H](Cc1ccccc1)NC(=O)[C@@H](NC(=O)c1ccccc1N)C(C)C)C(=O)N[C@@H](CCCCN)C(=O)N[C@@H](Cc1ccc(O)cc1)C(=O)N[C@@H](C)C(=O)N[C@@H](CCC(=O)O)C(=O)N[C@@H](CO)C(=O)N[C@@H](CC(=O)O)C(=O)N[C@@H](Cc1ccc(O)c([N+](=O)[O-])c1)C(=O)N[C@@H](C)C(N)=O) [peptide X, Q-hSKI-1 (132-142): Abz-VFRSLKYAESD-Y(NO2)-A]",kinetic parameters relative to peptide IV,[3],~3 fold
"PS3 (SKI-1 prosegment construct extending to Leu197, hexa-His tag) (other, Bacterial recombinant (pET24b, E. coli BL21); Any vector-derived residues are not described) KKHLGDRLEKKSFEKAPCPGCSHLTLKVEFSSTVVEYEYIVAFNGYFTAKARNSFISSALKSSEVDNWRIIPRNNPSSDYPSDFEVIQIKEKQKAGLLTLEDHPNIKRVTPQRKVFRSLKYAESDPTVPCNETRWSQKWQSSRPLRRASLSLGSGFWHATGRHSSRRLLRAIPRQVAQTLHHHHHH",Ki,BTMD-SKI-1 [4],0.127 µM
"[2Abz]RSLKYAESD[Tyr(3-NO2)]A-NH2 (N-terminus assumed; SMILES CC(C)C[C@H](NC(=O)[C@H](CO)NC(=O)[C@H](CCCNC(=N)N)NC(=O)c1ccccc1N)C(=O)N[C@@H](CCCCN)C(=O)N[C@@H](Cc1ccc(O)cc1)C(=O)N[C@@H](C)C(=O)N[C@@H](CCC(=O)O)C(=O)N[C@@H](CO)C(=O)N[C@@H](CC(=O)O)C(=O)N[C@@H](Cc1ccc(O)c([N+](=O)[O-])c1)C(=O)N[C@@H](C)C(N)=O) [peptide XI, Q-hSKI-1 (134-142): Abz-RSLKYAESD-Y(NO2)-A]",kinetic parameters relative to peptide IV,[3],~16 fold
"PS2 (SKI-1 prosegment construct extending to Ala188, hexa-His tag) (other, Bacterial recombinant (pET24b, E. coli BL21); The start at aa 18 follows the sense primer and claim 3; Any vector-derived residues are not described) KKHLGDRLEKKSFEKAPCPGCSHLTLKVEFSSTVVEYEYIVAFNGYFTAKARNSFISSALKSSEVDNWRIIPRNNPSSDYPSDFEVIQIKEKQKAGLLTLEDHPNIKRVTPQRKVFRSLKYAESDPTVPCNETRWSQKWQSSRPLRRASLSLGSGFWHATGRHSSRRLLRAHHHHHH",inhibitory potency after digestion with carboxypeptidase B to eliminate the His-tag,BTMD-hSKI-1,not affected
same,Ki,BTMD-hSKI-1; read-out: Ki(app),0.097 µM
same,Ki,BTMD-SKI-1 [4],0.0975 µM
